The subject of assay [1] is GFP-positive and Snail-positive B16-F10 tumor cells. In words: Snail-positive B16-F10 bone metastasis model, intratumoral administration (Example 17). Format: in vivo, mouse. The conditions noted are these: intratumoral 10 mg/kg on day 7, assay day 14; FIG. 105A. The text has this:
Three antibodies were comparatively analyzed for their antitumor effects and an immunosuppression-mitigating effect using bone metastasis models in which mouse melanoma cells B16-F10 forced to express Snail were subcutaneously and intravenously transplanted in C57BL/6N mice.
1. Experiment Group (n=5) • 1. No treatment • 2. Control IgG (anti-DNP) • 3. Anti-FSTL1 Clone #6-55 • 4. Anti-FSTL1 Clone #7-34 • 5. Anti-FSTL1 Clone #8-1
• Day 0: transplantation of GFP-positive and Snail-positive B16-F10 tumor cells (5×10^5 cells subcutaneously & 1×10^5 cells intravenously) • Day 7: intratumoral administration of the antibody (200 μg/0.1 mL/tumor) • Day 14: various assays (with a focus on flow cytometry analysis)
• Effects on the growth of subcutaneous tumor (calculation of tumor volume by tumor size measurement): measured 7, 11, and 14 days after tumor implantation (FIG. 105C) • Effects on bone metastasis (GFP-positive tumor cells in bone marrow) (FIG. 105A) • Effects on the expansion of mesenchymal stem cells (CD45− negative cells in bone marrow and in the spleen) (FIGS. 105B and 105D) • Effects on the expansion of immunosuppressive Treg cells (CD4-positive and Foxp3-positive cells in bone marrow or the spleen) (FIG. 105D) • Other immunosuppressive properties (FIG. 105D)
In order to evaluate in vivo antibody activity, antitumor effects and immunosuppression-mitigating effects were comparatively analyzed using bone metastasis models in which mouse melanoma cells (B16-F10) forced to express Snail were subcutaneously and intravenously transplanted in C57BL/6N mice. […]
It is known that when Snail-positive tumor cells are subcutaneously or intravenously transplanted to mice, the tumor metastasizes preferentially to bone marrow in addition to various organs, and this incurs the expansion of mesenchymal stem cells (MSCs) originating in the bone marrow, thereby systemically and strongly suppressing the induction of antitumor immunity (Cancer Research 73: 6185, 2013). […] The percentage (%) of CD45^− cells in the bone marrow cells was analyzed by flow cytometry.

The target in assay [2] is T1, FSTL1 (Homo sapiens, UniProt Q12841).
T1 sequence (Q12841 21-308): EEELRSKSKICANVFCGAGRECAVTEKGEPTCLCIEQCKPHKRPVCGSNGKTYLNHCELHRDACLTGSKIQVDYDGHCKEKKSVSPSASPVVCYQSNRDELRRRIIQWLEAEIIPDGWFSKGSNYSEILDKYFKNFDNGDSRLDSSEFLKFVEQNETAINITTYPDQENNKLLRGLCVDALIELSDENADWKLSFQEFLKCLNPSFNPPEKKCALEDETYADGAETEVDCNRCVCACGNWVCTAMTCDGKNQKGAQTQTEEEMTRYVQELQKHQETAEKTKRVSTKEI
As to the kind of experiment: Affinity of mouse chimeric antibodies, Biacore T-200 (Example 33). It counts as binding. The protocol: (§1) The mouse chimeric antibodies were immobilized onto Sensor Chip CM5 (GE Healthcare Japan Corp., BR-1005-30) using Mouse Antibody Capture Kit (GE Healthcare Japan Corp., BR-1008-38), and their affinity for human FSTL1 was calculated using Biacore T-200 (GE Healthcare Japan Corp.).
First, the exhaustive activity comparison of the obtained antibodies was conducted with the human FSTL1 concentration fixed to 10 μg/ml (Table 33-1, FIG. 28).
Next, the KD values of clone #6-55, #7-34, and #13 presumed to have high affinity in FIG. 28 were calculated with the antigen concentration adjusted to 0 to 20 μg/ml (Table 35-2).

The target of assay [3] is T1, FSTL1. In words: Affinity of mouse chimeric antibodies for human FSTL1, Biacore T-200 (Example 33). Format: binding. The protocol: as §1
First, the exhaustive activity comparison of the obtained antibodies was conducted with the human FSTL1 concentration fixed to 10 μg/ml (Table 33-1, FIG. 58).
Next, the KD values of clone #6-55, #7-34, and #13 presumed to have high affinity in FIG. 58 were calculated with the antigen concentration adjusted to 0 to 20 μg/ml (Table 35-2).
First, the exhaustive activity comparison of the obtained antibodies was conducted with the human FSTL1 concentration fixed to 10 μg/ml (Table 33-1, FIG. 90).
Next, the KD values of clone #6-55, #7-34, and #13 presumed to have high affinity in FIG. 90 were calculated with the antigen concentration adjusted to 0 to 20 μg/ml (Table 35-2).

Consider 5 molecules from patent US20180021429A1, “ANTICANCER AGENTS OR ANTIMETASTATIC AGENTS USING FSTL1 AND COMBINATION DRUG THEREOF” (PHARMA FOODS INTERNATIONAL CO., LTD., priority 2015, published 2018).

B1: #8-1: chicken-mouse chimeric anti-FSTL1 antibody clone; variable regions SEQ ID NO: 791 (light), 793 (heavy) (antibody, V domains shown)
VH: AVTLDESGGGLQTPGGALSLVCKGSGFTFSSFNMFWVRQAPGKGLEWVAGIGKDGVPKYGAAVDGRATISKDNGQSTMRLQLNNLRAEDTGTYFCAKAAGGCSYDWCGIYAGDIDTWGHGTEVIVSS
VL: ASTQPSSVSANPGEAVKITCSGGSGSYYGWYQQKSPGSAPVTVIYNNNQRPSDIPSRFSGSKSGSTATLTITGVQAEDEAVYFCGGYDSSSGHGGIFGAGTTLTVL
modifications: mouse constant regions
Turning to B1, the “bone metastasis (GFP-positive tumor cells in bone marrow)” value (“bone metastasis” below) in assay [1] is given as “suppressed”.

B2: #33: chicken-mouse chimeric anti-FSTL1 antibody clone; variable regions SEQ ID NO: 823 (light), 825 (heavy) (antibody, V domains shown)
VH: AVTLDESGGGLQTPGGGLSLVCKASGFTFSSFNMNWVRQAPGKGLEYVAEISGTGSSTYYGSAVKGRATISRDNGQSTVRLQLNNLRAEDTATYFCARGDGAYSIDAWGHGTEVIVSS
VL: ASTQPSSVSANPGETVEITCSGDSSYYGWFQQKSPGSAPVTVIYDNTNRPSDIPSRFSGSKSGSTATLTITGVRAEDEAVYYCGGYDSSTYDGIFGAGTTLTVL
modifications: mouse constant regions
B2: the “affinity in surface plasmon resonance assay” value in assay [2] is listed as “strong affinity”. Also, the “affinity in an assay system using surface plasmon resonance” value (shortened to “affinity in an assay system”) in assay [3] is listed as “strong affinity”.

B3: #6-55: chicken-mouse chimeric anti-FSTL1 antibody clone; variable regions SEQ ID NO: 783 (light), 785 (heavy) (antibody, V domains shown)
VH: AVTLDESGGGLQTPGGALSLVCKGSGFTFTSVTMQWVRQAPGKGLEWVASVCSGSSTYYAPAVKGRATISRDNGQSTVRLQLSNLRPEDTGTYYCAKIAGRARWSCTSAAYNIDAWGHGTEVIVSS
VL: ASTQPSSVSAIPGETVKITCSGGGNNYGWYQQRSPGSAPVTVIYYNDNRPSNIPSRFSGSTSGSTSTLTITGVQADDEAIYYCGSWDSNTDSGIFGAGTTLTVL
modifications: mouse constant regions
Take B3: the “affinity in surface plasmon resonance assay” value in assay [2] is recorded as “strong affinity”. Besides, the “affinity in an assay system” value in assay [3] is on record as “strong affinity”. For the same molecule, in assay [1], the “bone metastasis” value was “suppressed”.

B4: #7-34: chicken-mouse chimeric anti-FSTL1 antibody clone; variable regions SEQ ID NO: 787 (light), 789 (heavy) (antibody, V domains shown)
VH: AVTLDESGGGLQTPGGGLSLVCKASGFTFSSVTMQWVRQAPGKGLEWVASICSGSSTYYGPAVKGRATISRDNGQNTVRLQLNNLRAEDTATYYCAKIVGRGRWSCTSAAYNIDAWGHGTEVIVSS
VL: ASTQPSSVSANPGETVKITCSGGGNNYGWYQQKSPGSAPVTVIYYNNNRPSNIPSRFSGSTSGSTSTLTITGVQAEDEAVYYCGSYEGSTDSGIFGAGTTLTVL
modifications: mouse constant regions
On to B4, for which the “affinity in an assay system” value in assay [3] was “strong affinity”. Further, the “bone metastasis” value in assay [1] is listed as “no suppressive effect”.

B5: #13: chicken-mouse chimeric anti-FSTL1 antibody clone; variable regions SEQ ID NO: 815 (light), 817 (heavy) (antibody, V domains shown)
VH: AVTLDESGGGLQTPGGGLSLVCKASGFTFSSVTMQWVRQAPGKGLEWVASICSGSSTYYGPAVKGRATISRDNGQNTVRLQLNNLRAEDTATYYCAKIVGRGRWSCTSAAYNIDAWGHGTEVIVSS
VL: ASTQPSSVSANPGETVKITCSGGGNNYGWYQQKSPGSAPVTVIYNNNNRPSNIPSRFSGSKSGSTNTLTITGVQAEDEAVYYCGSYDSSSDSGIFGAGTTLTVL
modifications: mouse constant regions
Regarding B5, in assay [2], the “affinity in surface plasmon resonance assay” value is “strong affinity”. In assay [3], the “affinity in an assay system” value was “strong affinity”.
